These results are taken from US20250313643A1 (UNM RAINFOREST INNOVATIONS, published 2025).

Changes are numbered by the printed parent chain. Some results are limits rather than exact numbers.

Assay [1] has as its target T1, human CCKBR extracellular peptide (human, UniProt P32239 39-53).
T1 construct: domain: extracellular fragment of human CCK-BR; also called human peptide; human CCKBR peptide
The assay is described as follows: indirect ELISA on human CCKBR peptide, OD450nm against nM scFv; column head 'Apparent kD (nM)'.

For assay [2], the target named is T1, human CCKBR extracellular peptide. The assay is described as follows: Assay and target are not stated on the sheet. The Kd stands in the legend box of an in vivo plot. The text describes affinity measurement of the humanized variants against the human peptide.
The target is the same in assay [3]. The assay is described as follows: ELISA affinity measurement.
Another assay deals with T2, CCKBR peptide.
T2 construct: It may be the same as m3 or m4; also called target CCKBR peptide; target peptide (immunization and selection)
T2 peptide: CETPRIRGTGTRELE
Nature of the assay: ELISA (panel 'Binding Affinity by ELISA'), OD450nm against nM scFv. The coated peptide is not named in the panel. (In an ELISA, binding on a coated surface is turned into a signal by an enzyme label.)

B1: scFv77-2 hu HC2-LC3 (scFv)
scFv: MAQVQLVQSGAEVKKPGASVKVSCKASGFNIKDYYIHWVRQAPGQGLEWIGWIDPENGDTEYAPKFQGRATMTADTSISTAYMELSRLRSDDTAVYYCNAGGRFAYWGQGTLVTVSSGGGGSGGGGSGGGGSDIQMTQSPSTLSASVGDRVTITCKSSQSLLNSGNQKNYLAWYQQKPGKAPKLLIYGASTRESGVPSRFSGSGSGTEFTLTISSLQPDDFATYYCQNDHSYPYTFGGGTKVEIKENLYFQGAAALEHHHHHH
notes: also called humanized CCKBR scFv HC2-LC3; CCKBR hscFv HC2-LC3
B1: the Kd in assay [1] was found to be 4.3 nM; in assay [2], 3.1 nM. In addition, in assay [3], the “fold improvement in affinity compared with parental mscFv77-2” value was more than 25 fold.

B2: HC2-LC2 (scFv)
scFv (VH-linker-VL, with protease site and His tag): B1 scFv with T142S, E208D, D219E, V242L
notes: also called scFv77-2 hu HC2-LC2; scFv77-2 hu HC2-linker-LC2
B2 showed a Kd in assay [2] of 9.8 nM.

B3: mscFv77-2 Parental (scFv, V domains shown)
VH: EVQLQQAGAELVRSGASVKLSCTASGFNIKDYYIHWVKQRPEQGLEWIGWIDPENGDTEYAPKFQGKATMTADTSSNTAYLQLSSLTSEDTAVYYCNAGGRFAYWGQGTLVTVSA
VL: DIVMTQSPSSLSVSAGEKVTMSCKSSQSLLNSGNQKNYLAWYQQKPGQPPKLLIYGASTRESGVPDRFTGSGSGTDFTLTISSVQAEDLAVYYCQNDHSYPYTFGGGTKLEIK
notes: Murine single-chain Fv; It has a kappa light chain; also called murine parent scFv; parental scFv
Regarding B3, the values for the Kd (in assay [1]; with CCKBR peptide) were 109 nM and 195 nM, respectively.
